Assay: soluble on expression in E. coli; label from the status in PepcDB or PDB records

Sequence	soluble on expression in E. coli
MSLGTLASLHLNSGDAHHKQRTVTILEFSSSLKLVYKPRSLKVDGVFNGLLAFLNDRTGEVIKDQYCPKVLQRDGYGYVEFVTHQSCQSLEEVSDFYERLGSLMSLSYVLNSSDFHFENIIAHGPYPVLIDLETIIHNTADSSEETSTAMDRAFRMLNDSVLSTGMLPSSIYYRDQPNMKGLNVGGVSKSEGQKTPFKVNQIANRNTDEMRIEKDHVTLSSQKNLPIFQSAAMESVHFLDQIQKGFTSMYQWIEKNKQEFKEQVRKFEGVPVRAVLRSTTRYTELLKSSYHPDLLRSALDREVLLNRLTVDSVMTPYLKEIIPLEVEDLLNGDVPYFYTLPEERALYQEASAINSTFFTTSIFHKIDQKIDKLGIEDHTQQMKILHMSMLASNANHYADVADLEGHHHHHH	not soluble
MGGDMHEITLCQRALELIEQQAAKHGAKRVTGVWLKIGAFSCVETSSLAFCFDLVCRGSVAEGCKLHLEEQEAECWCETCQQYVTLLTQRVRRCPQCHGDMLQIVADDGLQIRRIEIDQE	not soluble
MEAGLDQSEIDERCECLKEVATSPAGRVLATDKQLDNLEQFISLVPGYIEKVRSHRVAVKAEEKRKAEEKRRQEEKEEEARKAREKQIEEERKAKEEQRANEERAKEERDRRALEVIVPPRQNSANSNINASVAFITNRLEMGSFSENNETVDRTIDTTATTVLSASSNAAQVDFVSFIKNSGEYLMVRKKKFPVDELVNNEKLGYPLGVTYDEKSKYWIICDRNLNKVLLMNVAESDVRVFEGPHLRNPTAVAVFEKGKSVVILCAPGNNQHVIYIYDFVDEIMHQFASHSDPLYNMKSQLRGLAISLGGNVLSLECSHAAAPKRLRIFKRDVGGKGFDIMGAKTPSFIASHNSKVAISDLGNNTVLIGNLIDTDWNKMSFSVLRIIETTQDLTLDQLANNNGFKFVSGMQFDTYGHLLIGDAKGHTIKLYDTDYKFLHRISSDFPLPYMSSFHISSSGEGIILDVHAQQKLHWVKMESIENITPWKAPPYQPKQSRENYQNRRF	not soluble
MSTAAETTGGDIEPWEEVTPDAARRLLVAAVEAFAERGYHATTTRDIAGRAGMSPAALYIHYKTKEELLHRISRIGHTRAVAILRSAAQGEGSAAERLADAVSSFVRWHAGRRTTARVVQYELDALGPEAREEILTLRRQCDAAVRGIIDDGVAAGEFDVPDVKGTTLAVLSLCIDVARWFNVNGPRTPDEVGALYADLVLRMVGAEPSGATAQR	not soluble
MSLRKEFPLMNRLKELRKEKNITLVELSEELGIPRSTLNRYENEDSEPKQETWEKLADYYGVSTAYLMGISNQKVSEEKALTAAKKVYQVYLSDDDLGKEIRKALMYFNKNDLDSVLKQAMQQYFTIPAVEWNTEFQSLKNTGFLYSWLEGYLVDRYRKEVKTNHNLITNTYYSIPSIDDVNEYGIFSDEIQIPLTEDFKQIFKVEDLSTKTHEEIKKLFKSDSTLIAYSYESSVDDKLKDDINMILDNARSEILNLKEKYPDKPSRIEQTTVLISKDEDTSFWSRNGSNDYIDELNLSEETKKLFVHLGSVFIEEKKRKSKAKEEGGSHHHHHH	soluble
MTSFNSFMRPLAAAILSALVTLAPVAPQAQEAVRGAVTNLPIPRFVSMKANEGNVRRGPSLTHRIDWVFKRRDMPLQITAEHGHWRKVQDRDGAGGWVHYALLSGVRTVLVEKDMMPLYARPDPASQVAAHFEMGVVARLGTCTQDWCRISAGGYRGWAPKENLWGVGTDEIRELEHHHHHH	not soluble
MSLAFPKIISVDDHTVEPPDVWRDRLPKKYQDTGPRIVRAPLKEMTFLGGKFAPVMGGPGDDGPLGDWWVYEDLHRPLTRLDTAVGYSRDEIKLEVITYEQMRPGSYDVPRRLADMDVNHVQSALCFPTFPRFCGQTFTEAKDRELGLLGVRAYNDWMVEEWCGPDAHGRLIPLTLVPLWDARLAAAEVRRNAARGVRAVAFSEIPPHLGLPSVHTDDWDPFLAACDETGTVIAMHIGSSSRMPSTSADAPPAVGSTITFANCCFSMVDWLMSGKFERFPNLRVMYAEGQIGWIPYILERADVVWEENRGWGGVADKVHRPPSELFAGHVFGCFFDDAFGLRNLDAIGIGNVLYETDYPHSDSTWPKSREVGEAQMGHLEAEVVERIVRGNAIELLGLTDDGEGHHHHHH	not soluble
LAAGQLADLVVLSKDYFSVAEEEIKGIESVLTVVDGKVVYAAGHFSPLAPPPIPVLPEWSPVVKVPGHYRSAPPATAKIGAMVQMHQCCGSCGVHGHQHDIARKSSIPVSDEQAFWGVLGCSCFA	not soluble
MTAFIKFDGKKSSDFDLRIINDVEHDSSFYDVDQVKVPGRDGVVLKDNKRLEAIERSYPLRLYSKRRLTEVETDISNWLNVKGWKDLELSWEPDYIYKATHITPFSIKEVLRNFGRLKINFLIHPIKYLKTGKQEVPLVNGGTLQNPGNVQAKPILKIKGTGNGILTINDFETGLENVQSELVIDMERHLVYKDVLSAWDNIVRTERHRMPLFDVGQNKISWTGSFTITAVPNWGVKV	soluble
MPDAVVVGAGPNGLVAANLLADAGWSVTVLEEQPEPGGAVRHDGEVAPGFVNDLFSSFYPLAAASPVLGGLRLEEHGLRWAHAPHVLAHPLTDGTCAVLDRDVATTAASLDAFALGDGAAWERLHAVWDRYRADILDALFTPFPPVRATARLALRLRGAGGLRLARTLVLPVRRMGEEEFRGEGGRLLLAGNALHADLAPEAAGSGGFGWLMSMLGQTYGFPVPVGGSGALTEALVHRLRARGGTLHCGRRVERVLVRDRRAVGVRTADGETVTARRAVLANVSVPALYGRLVAPADLPDQVLTDLRRFQWDFATFKVDWALDGPVPWQCEAAARAGTVHLSDGLDELTRFAAQIAMRQVPDRPFSLFGQMTTTDPTRSPRGTESAWAYTHVPHDIRADAGEEGITGTWDTGERELMADRVERQVERFAPGFRALIRARRVLAPPTLQALDANLEGGAINGGTTAMHQQLVFRPVPGTGRPETPVAGLFLASAGAHPGGGVHGAPGANAARAALRQHRFAGLARIQRALTRRDRAGDRHLEHHHHHH	not soluble
MSLATKFQESEQQGRKREFMNQRNAFFILELELTQEETDAFLPLYNELDTKRYELWKDVRQKRALMERKAELTDADMELIINKSLDNKIAEARLEKEYYYKFKRVLPMRKVMALKVAERKFARLFLKSSYDEGHHHHHH	soluble
AFVQEPLPFDPGALEPYGMSAKTLEFHYGKHHKGYVDNLNKLTQDTELADKSLEDVIRTTYGDAAKVGIFNNAAQVWNHTFFWNSLKPGGGGVPTGDVAARINSAFGSYDEFKAQFKNAAATQFGSGWAWLVLEAGTLKVTKTANAENPLVHGQVPLLTIDVWEHAYYLDYQNRRPDFIDNFLNQLVNWDFVAKNLAAA	soluble
PLNEVVRLHGSSGTSGKPTVVAYTQKDLEHWSSIIARSIYMAGGRKGDLLHNAYGYGLFTGGLGLHGGSEKLGCVTVPISGGNTQRQITLIQDFKPRVICGTPSYIMNIGETMKKMGIDPASTSIQYAILGSEPWSEEMRKNLETMFNMKAMDIYGLSEVIGPGVGMEC	not soluble
MGSDKIHHHHHHMDDRIVVTTQQVRALIASQFPQWAALDVQPVDLSGWDNRSFRLGEDMLVRMPSAERYVAQVEKEHRWLPELGPLLPVPIPAPLALGQPGEQYPFCWSVYRWLKGEPLARYLDSIELSAIAIDVAAFLKALHGIDASAGPPAGAHNFHRGGSLAVYDGEARASAARLANEVDQALAMEIWQLALSSHWQGKGVWVHGDIAEGNLLVQDGRLSAVIDFGSSGVGDPSSDLILAWNVLDAHSRAVFRQALGLDEATWQRGRGWALWKALIVLDAERGRNEKMAEWSRRTLREIFADHLEN	not soluble
MGSDKIHHHHHHMRLNRETIKDRAAWEKIGVRPPYFDLDEVEKNTKEQPKWVHFGGGNIFRGFVAAVLQNLLEEGKEDTGINVIELFDYEVIDKVYKPYDNLSIAVTIKPDGDFEKRIIASVMEALKGDPSHPDWERAKEIFRNPSLQLASLTITEKGYNIEDQAGNLFPQVMEDMKNGPVSPQTSMGKVAALLYERFKAGRLPIALLSLDNFSRNGEKLYSSVKRISEEWVKSGLVEKDFIDYLEKDVAFPWSMIDKIVPGPSEFIKEHLEKLGIEGMEIFVTSKRTHIAPFVNMEWAQYLVIEDSFPNGRPKLEGADRNVFLTDRETVEKAERMKVTTCLNPLHTALAIFGCLLGYKKIADEMKDPLLKKLVEGVGEEGIKVVVDPGIINPREFLNEVINIRLPNPYLPDTPQRIATDTSQKMPIRFGETIKAYHERPDLDPRNLKYIPLVIAGWCRYLMGIDDEGREMQLSPDPLLENLRSYVSKIKFGDPESTDDHLKPILSSQQLFRVNLYEVGLGEKIEELFKKMITGPRAVRKTLEEVVGREDG	not soluble
MMEKPEGLKLIDENGRRIDGRKKYELRPIKMKVGVLKNANGSAYIEWGRNKIIAAVYGPRELHSKHLQRPDRAILRVRYNMAPFSVEERKKPGPDRRSIEISKVIKGALEPALILEMFPRTSIDVFIEVLQADAGTRVAGITAASLALADAGIPMRDLVAACAAGKIEGEIVLDLNKEEDNYGEADVPVAIMPLKNDITLLQMDGYLTKEEFIEAVRLAIKGAKAVYQKQREALKEKYLKIAQEVEESE	soluble
MSDSWTERWNDRYSNEIFAYGEKPNNYLKAQLENLQPGTILFAAEGEGRNAVFAACLGWDVQAFDISSEGKKKAFQLAEKNQVTIAYQVGQLETLGYTAGQFDALALIYAHFPATVKSAYHRILSSYVRSGGYIIFEAFSKKHLDYLAKNEQVGGPKEFDMLFSIEEIKADFPDYEILELEEKEIELNEGQFHNGTGSVIRFTGRKKLEHHHHHH	not soluble
MIDMFPMEKGEEQETYELIVRVFHKYVAPVYSENGVARFLGMLSPEGLSEMNNGKNSFVIVARDQSKIIGMISVINDSHIALFFVSPRYQGKGIGKNILDEAIKNCLNRNPELSAVTVSSSPNSKSFYEEAGFEVIGLEHHHHHH	soluble
MGSDKIHHHHHHMIHTREEQMEAFGRFLDILDELRVKCPWDRKQTNESLRPNTIEETYELCDALMRDDKKDICKELGDVLLHVAFYAKIGSETGDFDIKDVCDKLCDKLIFRHPHVFGEVKAETAGQVSENWEQLKLKEKDGNKSVLSGVPSALPSLIKAYRIQDKARNVGFDWEEREQVWDKVKEEIREFQVEVANMDKEKAEAEFGDVMFSLINAARLYKINPDNALELTNQKFIRRFNYLEEHTIKEGKNLKDMSLEEMDAIWNEAKRKGL	not soluble
MTDARPRICILGGGFGGLYTALRLGQLSWEGHTPPEIVLVDQRDRFLFAPFLYELVTEEMQTWEIAPPFVELLAESGVIFRQAEVTAIDFDHQKVLLNDQDKGTESLAFDQLVIALGGQTPLPNLPGLKDYGLGFRTLEDAYKLKQKLKSLEQADAEKIRIAIVGGGYSGVELAAKLGDRLGERGRIRIIERGKEILAMSPEFNRQQAQASLSAKGIWVDTETTVTAITATDVTLQFREQEDVIPVDLVLWTVGTTVSPLIRNLALPHNDQGQLRTNAQLQVEGKTNIFALGDGAEGRDASGQLIPTTAQGAFQQTDYCAWNIWANLTGRPLLPCRYQPLGEMLALGTDGAVLSGLGIKLSGPAALLARRLVYLYRFPTWQHQLTVGLNWLTRPLGDWLKNEPSLEHHHHHH	not soluble
